Reference: paper PMC10784468 (Nature Communications, 2024)
Where two headings read alike, the source gives them in different places. Positions of bridges follow the written chain, without caps; N, C: chain ends. Residues, ends and D or L forms follow the SMILES beside them. *: point of attachment. X1 = O=C(O)c1ccc(-c2c3nc(c(-c4ccc(C(=O)O)cc4)c4ccc([nH]4)c(-c4ccc(C(=O)*)cc4)c4nc(c(-c5ccc(C(=O)O)cc5)c5ccc2[nH]5)C=C4)C=C3)cc1; X2 = O=C(O)C/C(=C/C(=O)*)C(=O)O

Method: The main organs (heart, liver, spleen, lung, kidney and intestine) of healthly BALB/c nude mice (~8 weeks old, 18 g) were collected under euthanasia after treatment with PBS and Gi-F-CAA (8, 12 and 16 mg/kg in 100 μL PBS) for 1 day. Afterwards, the histology evaluation by Hematoxylin and Eosin (H&E) Staining was carried out by Servicebio Technology Co., Ltd. (Wuhan, China). Meanwhile, the whole blood and serum of healthly BALB/c nude mice (~8 weeks old, 18 g) were collected after treatment with PBS and Gi-F-CAA (8, 12 and 16 mg/kg in 100 μL PBS) for 1 days. The blood biochemistry analysis was performed with Hitachi Automatic Biochemical Analyzer 7100. The blood routine analysis was carried out by Vital River Laboratory Animal Technology Co., Ltd. (Beijing, China).
[1] = healthy mice, i.v. 8, 12 and 16 mg/kg, 1 day post-injection

CC(C)C[C@H](NC(=O)c1ccc(-c2c3nc(c(-c4ccc(C(=O)O)cc4)c4ccc([nH]4)c(-c4ccc(C(=O)O)cc4)c4nc(c(-c5ccc(C(=O)O)cc5)c5ccc2[nH]5)C=C4)C=C3)cc1)C(=O)N[C@@H](CCCCNC(=O)/C=C(/CC(=O)O)C(=O)O)C(=O)N[C@@H](CC(C)C)C(=O)N[C@@H](CCCCN)C(=O)N[C@@H](CC(C)C)C(=O)N[C@@H](CCCCNC(=O)/C=C(/CC(=O)O)C(=O)O)C(=O)NCC(=O)N[C@@H](C)C(=O)N[C@H]1CSSC[C@@H](C(=O)N2CCC[C@H]2C(=O)N[C@H](C(=O)O)C(C)C)NC(=O)[C@@H]2CCCN2C(=O)[C@H](Cc2ccc(O)cc2)NC(=O)[C@H](CC(C)C)NC(=O)[C@@H]2CCCN2C(=O)[C@H](CC(C)C)NC(=O)[C@H](Cc2c[nH]c3ccccc23)NC(=O)[C@H](CC(N)=O)NC1=O [Gi-F-CAA] (X1-LK(X2)LKLK(X2)GACNWLPLYPCPV-OH; disulfide 9-17; C-terminus assumed)
ALP (8 mg/kg, mice 1): 152 U/L | ALT (8 mg/kg, mice 1): 62 U/L | AST (8 mg/kg, mice 1): 183 U/L | BUN (8 mg/kg, mice 1): 13.2 mmol/L | CREA (8 mg/kg, mice 1): 30.8 µmol/L | HGB (8 mg/kg, mice 1): 15.7 g/dL | NEUT (8 mg/kg, mice 1): 0.4 109/L | PLT (8 mg/kg, mice 1): 985 109/L | RBC (8 mg/kg, mice 1): 10.6 1012/L | WBC (8 mg/kg, mice 1): 1.8 109/L | ALP (8 mg/kg, mice 2): 159 U/L | ALT (8 mg/kg, mice 2): 60 U/L | AST (8 mg/kg, mice 2): 184 U/L | BUN (8 mg/kg, mice 2): 14.42 mmol/L | CREA (8 mg/kg, mice 2): 28.8 µmol/L | HGB (8 mg/kg, mice 2): 15.4 g/dL | NEUT (8 mg/kg, mice 2): 0.3 109/L | PLT (8 mg/kg, mice 2): 1198 109/L | RBC (8 mg/kg, mice 2): 10.1 1012/L | WBC (8 mg/kg, mice 2): 1.5 109/L | ALP (8 mg/kg, mice 3): 145 U/L | ALT (8 mg/kg, mice 3): 56 U/L | AST (8 mg/kg, mice 3): 193 U/L | BUN (8 mg/kg, mice 3): 13.94 mmol/L | CREA (8 mg/kg, mice 3): 31.6 µmol/L | HGB (8 mg/kg, mice 3): 15.9 g/dL | NEUT (8 mg/kg, mice 3): 0.3 109/L | PLT (8 mg/kg, mice 3): 1073 109/L | RBC (8 mg/kg, mice 3): 9 1012/L | WBC (8 mg/kg, mice 3): 1.7 109/L | ALP (8 mg/kg, mice 4): 159 U/L | ALT (8 mg/kg, mice 4): 63 U/L | AST (8 mg/kg, mice 4): 180 U/L | BUN (8 mg/kg, mice 4): 13.15 mmol/L | CREA (8 mg/kg, mice 4): 31 µmol/L | HGB (8 mg/kg, mice 4): 15.3 g/dL | NEUT (8 mg/kg, mice 4): 0.4 109/L | PLT (8 mg/kg, mice 4): 1117 109/L | RBC (8 mg/kg, mice 4): 10 1012/L | WBC (8 mg/kg, mice 4): 2 109/L | ALP (12 mg/kg, mice 1): 150 U/L | ALT (12 mg/kg, mice 1): 61 U/L | AST (12 mg/kg, mice 1): 192 U/L | BUN (12 mg/kg, mice 1): 13.27 mmol/L | CREA (12 mg/kg, mice 1): 30 µmol/L | HGB (12 mg/kg, mice 1): 15.2 g/dL | NEUT (12 mg/kg, mice 1): 0.4 109/L | PLT (12 mg/kg, mice 1): 991 109/L | RBC (12 mg/kg, mice 1): 9 1012/L | WBC (12 mg/kg, mice 1): 1.9 109/L | ALP (12 mg/kg, mice 2): 145 U/L | ALT (12 mg/kg, mice 2): 63 U/L | AST (12 mg/kg, mice 2): 191 U/L | BUN (12 mg/kg, mice 2): 13.11 mmol/L | CREA (12 mg/kg, mice 2): 28.5 µmol/L | HGB (12 mg/kg, mice 2): 15.4 g/dL | NEUT (12 mg/kg, mice 2): 0.3 109/L | PLT (12 mg/kg, mice 2): 1110 109/L | RBC (12 mg/kg, mice 2): 9.3 1012/L | WBC (12 mg/kg, mice 2): 1.6 109/L | ALP (12 mg/kg, mice 3): 153 U/L | ALT (12 mg/kg, mice 3): 60 U/L | AST (12 mg/kg, mice 3): 190 U/L | BUN (12 mg/kg, mice 3): 12.9 mmol/L | CREA (12 mg/kg, mice 3): 30.6 µmol/L | HGB (12 mg/kg, mice 3): 15.6 g/dL | NEUT (12 mg/kg, mice 3): 0.3 109/L | PLT (12 mg/kg, mice 3): 1144 109/L | RBC (12 mg/kg, mice 3): 10 1012/L | WBC (12 mg/kg, mice 3): 1.9 109/L | ALP (12 mg/kg, mice 4): 146 U/L | ALT (12 mg/kg, mice 4): 60 U/L | AST (12 mg/kg, mice 4): 190 U/L | BUN (12 mg/kg, mice 4): 13.29 mmol/L | CREA (12 mg/kg, mice 4): 29.9 µmol/L | HGB (12 mg/kg, mice 4): 16.4 g/dL | NEUT (12 mg/kg, mice 4): 0.3 109/L | PLT (12 mg/kg, mice 4): 1087 109/L | RBC (12 mg/kg, mice 4): 10.1 1012/L | WBC (12 mg/kg, mice 4): 2.1 109/L | ALP (16 mg/kg, mice 1): 150 U/L | ALT (16 mg/kg, mice 1): 57 U/L | AST (16 mg/kg, mice 1): 182 U/L | BUN (16 mg/kg, mice 1): 14.18 mmol/L | CREA (16 mg/kg, mice 1): 31.7 µmol/L | HGB (16 mg/kg, mice 1): 15.7 g/dL | NEUT (16 mg/kg, mice 1): 0.4 109/L | PLT (16 mg/kg, mice 1): 1194 109/L | RBC (16 mg/kg, mice 1): 9.6 1012/L | WBC (16 mg/kg, mice 1): 2 109/L | ALP (16 mg/kg, mice 2): 145 U/L | ALT (16 mg/kg, mice 2): 56 U/L | AST (16 mg/kg, mice 2): 188 U/L | BUN (16 mg/kg, mice 2): 13.21 mmol/L | CREA (16 mg/kg, mice 2): 29.4 µmol/L | HGB (16 mg/kg, mice 2): 15.3 g/dL | NEUT (16 mg/kg, mice 2): 0.3 109/L | PLT (16 mg/kg, mice 2): 984 109/L | RBC (16 mg/kg, mice 2): 10.5 1012/L | WBC (16 mg/kg, mice 2): 1.5 109/L | ALP (16 mg/kg, mice 3): 148 U/L | ALT (16 mg/kg, mice 3): 64 U/L | AST (16 mg/kg, mice 3): 180 U/L | BUN (16 mg/kg, mice 3): 12.87 mmol/L | CREA (16 mg/kg, mice 3): 28.9 µmol/L | HGB (16 mg/kg, mice 3): 15.1 g/dL | NEUT (16 mg/kg, mice 3): 0.3 109/L | PLT (16 mg/kg, mice 3): 1087 109/L | RBC (16 mg/kg, mice 3): 10.6 1012/L | WBC (16 mg/kg, mice 3): 1.9 109/L | ALP (16 mg/kg, mice 4): 146 U/L | ALT (16 mg/kg, mice 4): 59 U/L | AST (16 mg/kg, mice 4): 193 U/L | BUN (16 mg/kg, mice 4): 12.98 mmol/L | CREA (16 mg/kg, mice 4): 32.5 µmol/L | HGB (16 mg/kg, mice 4): 15 g/dL | NEUT (16 mg/kg, mice 4): 0.4 109/L | PLT (16 mg/kg, mice 4): 1072 109/L | RBC (16 mg/kg, mice 4): 9.8 1012/L | WBC (16 mg/kg, mice 4): 1.9 109/L | blood routine examination (WBC, RBC, PLT, LYMPH, NEUT) (healthy mice, i.v. 8, 12 and 16 mg/kg, 1 day): comparable with that of PBS group | hepatic and renal function markers (ALT, AST, ALP, BUN, CRE) [1]: normal ranges of values | histopathology (H&E) of major organs [1]: no remarkable histopathological damages
